Test results: patent US20230227567A1 (SELVAX, published 2023)

Key:
[1] = target: T1, recombinant human CD40 extracellular domain with C-terminal 6His tag (Novoprotein) (human); experiment: SPR Biacore T200, SVX-3001 amine-coupled to CM5, CD40-6His analyte, 1:1 model; value 2
T1 construct: Bought reagent; also called CD40-6His; CD40-His
Method: (§1) Method: Kinetic analysis by surface plasmon resonance (SPR) was carried out using the Biacore T200 (GE Healthcare). HBS-EP+ buffer was used as running buffer throughout.
(§2) Target immobilisation level: 600 RU. Wash solution: Ethanolamine.
(§3) Injection parameters for the sample were contact time: 120 seconds, flow rate: 30 μI/min, dissociation time: 300 seconds. Injection parameters for regeneration were contact time: 30 seconds, flow rate: 30 μI/min, stabilisation period: 0 seconds. Regeneration solution was either 10 mM glycine-HCl buffer pH 1.5 or 50 mM NaOH. The concentrations of CD40-His and CD40-Fc used for the kinetic analysis were […]. The model 1:1 binding was used for curve fitting.

[2] = target: T1, recombinant human CD40 extracellular …; experiment: SPR Biacore T200, SVX-3001 amine-coupled to CM5, CD40-6His analyte, 1:1 model; value 3
Method: as §1, §2, §3

[3] = target: T2, recombinant human CD40 extracellular domain with a C-terminal human IgG1 Fc domain and 6His tag (BioLegend) (human); experiment: SPR Biacore T200, SVX-3001 amine-coupled to CM5, CD40-Fc analyte, 1:1 model; average of three
T2 construct: Bought reagent; also called CD40-Fc
T2 sequence (P25942 21-193): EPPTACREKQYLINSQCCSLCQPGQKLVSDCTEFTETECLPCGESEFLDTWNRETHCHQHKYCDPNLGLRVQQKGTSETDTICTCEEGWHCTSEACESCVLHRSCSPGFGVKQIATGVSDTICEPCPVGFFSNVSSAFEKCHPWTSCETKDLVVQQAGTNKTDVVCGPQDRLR
Method: as §1, §2, §3

[4] = target: T1, recombinant human CD40 extracellular …; experiment: SPR Biacore T200, SVX-3001 amine-coupled to CM5, CD40-6His analyte, 1:1 model; average of three
Method: as §1, §2, §3

[5] = target: T2, recombinant human CD40 extracellular …; experiment: SPR Biacore T200, SVX-3001 amine-coupled to CM5, CD40-Fc analyte, 1:1 model; value 2
Method: as §1, §2, §3

[6] = target: T3, CD40 expressed on the surface of human peripheral blood mononuclear cells (human, UniProt P25942 21-277); experiment: flow cytometry on human PBMC
T3 construct: Native CD40 on primary human cells (PBMC, B cells, monocyte-derived dendritic cells); also called native CD40 protein; CD40 on the surface of B cells
T3 sequence (P25942 21-277 limits assumed): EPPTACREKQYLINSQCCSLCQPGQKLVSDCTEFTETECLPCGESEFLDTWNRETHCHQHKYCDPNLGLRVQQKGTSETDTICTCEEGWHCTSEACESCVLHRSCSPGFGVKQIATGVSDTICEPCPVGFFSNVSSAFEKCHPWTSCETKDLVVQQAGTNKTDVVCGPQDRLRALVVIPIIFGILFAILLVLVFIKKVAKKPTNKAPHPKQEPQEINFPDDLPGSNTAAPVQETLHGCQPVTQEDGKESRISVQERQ
Method: PMBC were stained with an anti-human CD19 antibody labelled with PE. […] Lymphocytes were gated based on FSC-A and SSC-A signals.
FACS staining was carried out on 10⁶ human PBMC per well. […] Cells were washed twice with FACS buffer and resuspended in 20 μl of BV421 anti-mouse Ig diluted in FACS buffer and incubated for 30 minutes. Cells were washed twice with FACS buffer and resuspended in 20 μl of PE anti-human CD19 diluted in FACS buffer and incubated for 30 minutes. Cells were washed once with FACS buffer and once with PBS and resuspended in 100 μl of 1% formaldehyde in PBS and incubated for 20 minutes. Cells were washed twice with FACS buffer and resuspended in 200 μl of FACS buffer for analysis.
FACS staining controls included an unstained control, PE anti-human CD19 and BV421 mouse anti-human Ig single stain controls and human IgG1 isotype control. Cell staining was analysed using a FACS Canto II flow cytometer (BD). PMT voltages and gates for analysis were set using the FACS staining controls.

[7] = target: T2, recombinant human CD40 extracellular …; experiment: SPR Biacore T200, SVX-3001 amine-coupled to CM5, CD40-Fc analyte, 1:1 model; value 3
Method: as §1, §2, §3

[8] = target: T2, recombinant human CD40 extracellular …; experiment: SPR Biacore T200, SVX-3001 amine-coupled to CM5, CD40-Fc analyte, 1:1 model; value 1
Method: as §1, §2, §3

[9] = target: T1, recombinant human CD40 extracellular …; experiment: SPR Biacore T200, SVX-3001 amine-coupled to CM5, CD40-6His analyte, 1:1 model; value 1
Method: as §1, §2, §3

T1 sequence (P25942 21-193): as the sequence (P25942 21-193) above

Kd [1]: 6.5 nM
koff [1]: 0.00409 s⁻¹
kon [1]: 628000 M⁻¹ s⁻¹
Kd [2]: 6.51 nM
koff [2]: 0.00375 s⁻¹
kon [2]: 576000 M⁻¹ s⁻¹
Kd [3]: 0.583 nM
koff [3]: 0.00033 s⁻¹
kon [3]: 621000 M⁻¹ s⁻¹
Kd [4]: 6.11 nM
koff [4]: 0.00388 s⁻¹
kon [4]: 640000 M⁻¹ s⁻¹
Kd [5]: 1.12 nM
koff [5]: 0.000555 s⁻¹
kon [5]: 497000 M⁻¹ s⁻¹
binding result [6]: binds
Kd [7]: 0.308 nM
koff [7]: 0.000203 s⁻¹
kon [7]: 661000 M⁻¹ s⁻¹
Kd [8]: 0.323 nM
koff [8]: 0.000232 s⁻¹
kon [8]: 717000 M⁻¹ s⁻¹
Kd [9]: 5.33 nM
koff [9]: 0.00381 s⁻¹
kon [9]: 715000 M⁻¹ s⁻¹
B1: Humanized anti-human CD-40 antibody SVX-3001 (antibody, human IgG1, kappa, V domains shown)
VH: QVQLQQSGPGLVKPSQSLSLTCAVSGYSITTNYYWNWIRQAPGKGLEWVGYIRYDGTTYYAPSLKGRFSITRDTSKNQFFLQLTSVTPEDTATYYCARLDYWGQGTLVTVSS
VL: DIVMTQSPLSLSVSLGDRASISCRSSQSLENSNGNTFLNWFQQKPGQSPQLLIYRVSNRFSGVPDRFSGSGSGTDFTLKISRVEAEDEGVYFCLQVTHVPYTFGGGTKLEIKR
notes: Human IgG1 heavy chain constant region and human kappa light chain constant region; made in HEK 293T cells, used as supernatant or Protein G purified; also called humanised agonist anti-human CD40 antibody; Selvax01
